Experimental data published in article PMC9083827.
Where “and” joins values, the source holds several entries; their conditions need not be identical. Equal entries are not always repeated.

Target: TraB_(31-110) (plasmid pIP501 (originally isolated from Streptococcus agalactiae, mainly found in Enterococci))
Test: cross-linking; 10 µg TraB_(31-110) in 50 µl with 0/0.001/0.01/0.05/0.1% glutaraldehyde in 50 mM Bicine, 150 mM NaCl, 1 mM DTT, 20 min at room temperature; Tween-20 micelles; SDS-PAGE

For TraB_(31-110) (domain or fragment), the stoichiometry N was 2 and 4.
